According to article PMC3898874:
Where “and” joins values, the source holds several entries; their conditions need not be identical. Equal entries are not always repeated.

Target: T1, FLAG-tagged STAT1 (signal transducer and activator of transcription 1), P42224
T1 chain: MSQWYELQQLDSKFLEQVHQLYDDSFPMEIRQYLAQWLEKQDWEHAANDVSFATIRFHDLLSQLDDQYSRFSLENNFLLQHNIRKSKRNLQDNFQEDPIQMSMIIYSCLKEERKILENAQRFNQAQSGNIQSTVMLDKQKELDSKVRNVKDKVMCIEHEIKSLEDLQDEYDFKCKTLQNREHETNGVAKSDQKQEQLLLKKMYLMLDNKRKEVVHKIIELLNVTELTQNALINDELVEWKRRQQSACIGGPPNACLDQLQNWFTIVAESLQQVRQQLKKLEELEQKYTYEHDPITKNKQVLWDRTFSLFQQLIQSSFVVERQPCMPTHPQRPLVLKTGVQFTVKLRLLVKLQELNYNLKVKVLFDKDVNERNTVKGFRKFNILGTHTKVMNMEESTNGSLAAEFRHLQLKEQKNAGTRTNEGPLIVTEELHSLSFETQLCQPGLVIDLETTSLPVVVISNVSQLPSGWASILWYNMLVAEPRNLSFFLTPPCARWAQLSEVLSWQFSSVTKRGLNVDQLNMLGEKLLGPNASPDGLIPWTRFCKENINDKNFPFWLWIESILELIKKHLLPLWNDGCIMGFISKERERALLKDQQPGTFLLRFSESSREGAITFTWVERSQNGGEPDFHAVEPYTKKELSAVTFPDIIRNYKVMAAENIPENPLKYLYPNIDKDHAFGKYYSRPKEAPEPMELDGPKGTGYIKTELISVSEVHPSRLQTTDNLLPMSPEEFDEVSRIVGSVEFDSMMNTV
Assay: co-IP; anti-FLAG M2 immunoprecipitation (protein A/G PLUS agarose, 4°C) from soluble whole-cell extracts (500 μg protein) of co-transfected HEK293T cells, untreated or treated 1 h with 50 U/ml IFNγ; extraction and wash buffer with 280 mM NaCl, 0.5% NP-40, 50 mM Tris/HCl pH 7.4; quantitative blots with anti-GFP and anti-β-arrestin1; control IP without FLAG-tagged STAT1
Settings: remark: other sources report otherwise

B1: FLAG-tagged STAT1 (signal transducer and activator of transcription 1), P42224 1-750 (natural protein)
chain: T1 chain
For B1, the fold stronger co-precipitation with FLAG-tagged STAT1 than β-arrestin1-GFP (signals normalised to inputs) was 3 fold and 6 fold.
